According to US20210171598A1, “PEPTIDE HORMONE WITH ONE OR MORE O-GLYCANS” (priority 2017, published 2021):
No end group written: not given here. *: point of attachment. diST = diST O-glycan, CC(=O)N[C@@H]1[C@@H](O[C@@H]2O[C@H](CO)[C@H](O)[C@H](O[C@]3(C(=O)O)C[C@H](O)[C@@H](NC(C)=O)[C@H]([C@H](O)[C@H](O)CO)O3)[C@H]2O)[C@@H](O)[C@@H](CO[C@]2(C(=O)O)C[C@H](O)[C@@H](NC(C)=O)[C@H]([C@H](O)[C@H](O)CO)O2)O[C@@H]1*; code T = T O-glycan (Galβ1-3GalNAc), CC(=O)N[C@@H]1[C@@H](O[C@@H]2O[C@H](CO)[C@H](O)[C@H](O)[C@H]2O)[C@@H](O)[C@@H](CO)O[C@@H]1*; ST = sialylated T O-glycan

T1: NPR-A receptor (UniProt P16066 33-1061, limits assumed)
T1 sequence (looked up): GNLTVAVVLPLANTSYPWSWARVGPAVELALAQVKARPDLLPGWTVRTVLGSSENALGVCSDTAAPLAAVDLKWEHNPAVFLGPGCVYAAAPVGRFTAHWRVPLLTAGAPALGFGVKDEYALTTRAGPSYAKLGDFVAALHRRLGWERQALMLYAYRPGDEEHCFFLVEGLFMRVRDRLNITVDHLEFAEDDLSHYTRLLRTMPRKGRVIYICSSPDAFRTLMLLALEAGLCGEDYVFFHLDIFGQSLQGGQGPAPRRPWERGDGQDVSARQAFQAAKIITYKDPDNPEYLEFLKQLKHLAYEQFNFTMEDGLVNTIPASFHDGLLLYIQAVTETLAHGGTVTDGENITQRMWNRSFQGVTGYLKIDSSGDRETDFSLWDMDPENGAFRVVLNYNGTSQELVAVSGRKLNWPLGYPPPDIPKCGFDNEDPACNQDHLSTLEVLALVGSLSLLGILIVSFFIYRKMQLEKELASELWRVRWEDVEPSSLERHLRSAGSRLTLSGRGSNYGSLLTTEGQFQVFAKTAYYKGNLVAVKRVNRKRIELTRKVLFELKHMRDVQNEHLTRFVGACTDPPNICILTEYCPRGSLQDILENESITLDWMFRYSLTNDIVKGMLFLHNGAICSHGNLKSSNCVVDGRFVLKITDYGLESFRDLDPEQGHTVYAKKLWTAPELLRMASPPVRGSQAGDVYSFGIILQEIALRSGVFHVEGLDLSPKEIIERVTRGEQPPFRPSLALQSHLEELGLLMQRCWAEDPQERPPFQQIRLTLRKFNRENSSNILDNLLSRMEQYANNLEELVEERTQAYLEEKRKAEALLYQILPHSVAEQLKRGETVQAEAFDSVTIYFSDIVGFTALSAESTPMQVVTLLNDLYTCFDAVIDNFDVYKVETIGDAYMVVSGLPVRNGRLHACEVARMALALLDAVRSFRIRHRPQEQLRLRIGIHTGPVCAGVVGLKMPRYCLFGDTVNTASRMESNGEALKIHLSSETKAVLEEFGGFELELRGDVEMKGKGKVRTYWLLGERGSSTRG


These molecules were tested against neprilysin (NEP) (Homo sapiens, UniProt P08473) (assay: In vitro degradation by neprilysin, MALDI-TOF time course). Conditions: 37° C., MALDI-TOF.
Chain of neprilysin (NEP) (P08473 whole entry): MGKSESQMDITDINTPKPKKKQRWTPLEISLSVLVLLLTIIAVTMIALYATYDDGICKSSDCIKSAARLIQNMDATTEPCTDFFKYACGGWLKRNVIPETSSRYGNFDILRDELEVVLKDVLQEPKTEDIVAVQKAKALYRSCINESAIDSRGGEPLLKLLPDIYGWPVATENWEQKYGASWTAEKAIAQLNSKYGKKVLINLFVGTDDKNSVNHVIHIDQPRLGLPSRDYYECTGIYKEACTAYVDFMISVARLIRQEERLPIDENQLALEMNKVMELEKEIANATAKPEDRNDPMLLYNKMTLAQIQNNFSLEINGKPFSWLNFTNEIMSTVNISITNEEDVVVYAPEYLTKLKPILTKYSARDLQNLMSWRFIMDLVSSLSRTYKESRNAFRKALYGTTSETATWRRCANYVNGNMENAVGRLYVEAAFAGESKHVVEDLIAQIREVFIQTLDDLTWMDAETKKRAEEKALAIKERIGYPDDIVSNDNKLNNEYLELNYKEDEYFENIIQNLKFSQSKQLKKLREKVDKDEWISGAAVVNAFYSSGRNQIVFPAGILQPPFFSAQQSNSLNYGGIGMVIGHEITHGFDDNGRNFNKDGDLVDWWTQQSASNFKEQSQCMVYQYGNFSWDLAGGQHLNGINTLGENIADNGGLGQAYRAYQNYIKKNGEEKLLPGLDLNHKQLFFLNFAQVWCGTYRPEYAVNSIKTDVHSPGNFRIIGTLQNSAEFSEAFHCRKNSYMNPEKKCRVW
Method: Many peptide hormones are destined for endocrine circulation where they are rapidly degraded with half-lives reaching only a few minutes^6-8.
For enzymatic degradation assays using either NEP or DPP-IV (R&D systems, UK), an enzyme titration was carried out to ensure full degradation within one hour of reaction time.
MALDI-TOF-MS was performed on a Bruker Autoflex instrument (Bruker Daltonik GmbH, Bremen, Germany) by mixing the quenched aliquots with a saturated solution of α-Cyano-4-hydroxycinnamic acid in ACN/H2O/TFA (70:30:0.1) at a ratio 1:1 on a target steel plate and mass-spectra were acquired in linear mode.
Reactions were performed in 50 mM Tris, 0.05% Brij-35, pH 9 (Neprilysin), or 50 mM Tris, 20 mM NaCl, pH 7.5 (IDE) and incubated at 37° C.

Molecule | residual full length / partially intact peptide detectable after incubation with NEP [min]
CC[C@H](C)[C@H](NC(=O)[C@H](CO)NC(=O)[C@H](CC(N)=O)NC(=O)[C@H](CC(C)C)NC(=O)[C@H](Cc1ccc(O)cc1)NC(=O)[C@H](CCCCN)NC(=O)[C@H](CCCCN)NC(=O)[C@@H](NC(=O)[C@H](C)NC(=O)[C@H](CCSC)NC(=O)[C@H](CCC(N)=O)NC(=O)[C@H](CCCCN)NC(=O)[C@H](CCCNC(=N)N)NC(=O)[C@H](CC(C)C)NC(=O)[C@H](CCCNC(=N)N)NC(=O)[C@@H](NC(=O)[C@H](Cc1ccc(O)cc1)NC(=O)[C@H](CC(N)=O)NC(=O)[C@H](CC(=O)O)NC(=O)[C@@H](NC(=O)[C@H](Cc1ccccc1)NC(=O)[C@@H](NC(=O)[C@H](C)NC(=O)[C@H](CC(=O)O)NC(=O)[C@H](CO)NC(=O)[C@@H](N)Cc1c[nH]cn1)C(C)C)[C@@H](C)O[C@H]1O[C@H](CO)[C@H](O)[C@H](O)[C@H]1NC(C)=O)[C@@H](C)O)C(C)C)C(=O)N[C@@H](CC(C)C)C(=O)N[C@@H](CC(N)=O)C(N)=O [VIP-Thr7/Tn] | 15

Each molecule was assayed against T1, NPR-A receptor (assay: cell-based or functional assay). Conditions: not given.

Molecule | potency, cGMP generated (HTRF) [nM] | reduction in efficacy, cGMP generated [%] | increase in efficacy, cGMP generated [%]
SLRRSSCFGGRMDRIGAQS(code T)GLGCNSFRY (ends and bridges not checked) [ANP with T O-glycan at residue 19] | 160 | ~20 | 
SLRRSSCFGGRMDRIGAQS(ST)GLGCNSFRY (ends and bridges not checked) [ANP with ST O-glycan at residue 19] | 296 | ~20 | 
SLRRSSCFGGRMDRIGAQSGLGCNS(code T)FRY (ends and bridges not checked) [ANP with T O-glycan at residue 25] | 265 |  | ~20
SLRRSSCFGGRMDRIGAQSGLGCNS(ST)FRY (ends and bridges not checked) [ANP with ST O-glycan at residue 25] | 717 |  | ~20
SLRRSSCFGGRMDRIGAQSGLGCNSFRY (not fully specified (residue 19); ends and bridges not checked) [ANP with one O-glycan (GalNAc/Tn) at residue 19] |  | ~20 | 
SLRRSSCFGGRMDRIGAQS(diST)GLGCNSFRY (not fully specified (bridges); ends and bridges not checked) [ANP with diST O-glycan at residue 19] |  | ~20 | 
SLRRSSCFGGRMDRIGAQSGLGCNSFRY (not fully specified (residue 25); ends and bridges not checked) [ANP with one O-glycan (GalNAc/Tn) at residue 25] |  |  | ~20
SLRRSSCFGGRMDRIGAQSGLGCNS(diST)FRY (not fully specified (bridges); ends and bridges not checked) [ANP with diST O-glycan at residue 25] |  |  | ~20
